# In patent publication US20140213531A1 (POLYPHOR, published 2014):
# Key:
# Assay in all cases: enzyme inhibition, pNA substrate
# [1] = target: T1, Coagulation Factor Xa, from uman plasma (human, UniProt P00742 41-179; P00742 235-488, limits assumed)
# T1 construct: purified natural enzyme, bought; also called FXa
# [2] = target: Thrombin, from Human Plasma, high activity (human, UniProt P00734 328-622)
# [3] = target: T2, Urokinase from human urine (human, UniProt P00749 21-431, limits assumed)
# T2 construct: purified natural enzyme, bought
# [4] = target: T3, Trypsin, Iodination grade, from human pancreas (human, UniProt P07477 24-247)
# T3 construct: purified natural enzyme, bought
# [5] = target: T4, Tryptase, from human lung (human, UniProt Q15661 31-275, limits assumed)
# T4 construct: purified natural enzyme, bought
# T4 sequence (Q15661 31-275 limits assumed): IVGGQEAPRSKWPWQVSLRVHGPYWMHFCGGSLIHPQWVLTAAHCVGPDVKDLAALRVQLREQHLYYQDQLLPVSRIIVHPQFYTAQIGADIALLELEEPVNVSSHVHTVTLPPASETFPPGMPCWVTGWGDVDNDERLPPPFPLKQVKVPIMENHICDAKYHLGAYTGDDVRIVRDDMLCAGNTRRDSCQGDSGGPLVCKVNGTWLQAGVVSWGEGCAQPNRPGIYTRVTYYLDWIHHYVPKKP
# [6] = target: T5, Chymase, from human skin (human, UniProt P23946 22-247)
# T5 construct: purified natural enzyme, bought
# T5 sequence (looked up): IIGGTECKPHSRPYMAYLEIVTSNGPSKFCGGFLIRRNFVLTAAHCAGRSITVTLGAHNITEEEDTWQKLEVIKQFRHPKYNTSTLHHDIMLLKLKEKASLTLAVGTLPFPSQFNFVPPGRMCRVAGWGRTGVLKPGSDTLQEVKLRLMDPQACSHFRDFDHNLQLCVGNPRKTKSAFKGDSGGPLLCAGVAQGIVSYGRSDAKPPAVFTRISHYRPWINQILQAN
# [7] = target: T6, Chymotrypsin, from human pancreas (human, UniProt P17538 19-263)
# T6 construct: purified natural enzyme, bought
# T6 sequence (P17538 19-263): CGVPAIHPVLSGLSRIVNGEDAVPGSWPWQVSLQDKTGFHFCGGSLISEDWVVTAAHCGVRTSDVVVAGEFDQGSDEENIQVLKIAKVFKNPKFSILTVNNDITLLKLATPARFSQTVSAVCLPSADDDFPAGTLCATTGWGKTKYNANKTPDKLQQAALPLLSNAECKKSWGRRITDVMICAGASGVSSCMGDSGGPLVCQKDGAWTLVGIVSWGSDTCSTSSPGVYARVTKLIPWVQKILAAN
# T1 sequence (P00742 41-179 limits assumed, chain 1 of 2): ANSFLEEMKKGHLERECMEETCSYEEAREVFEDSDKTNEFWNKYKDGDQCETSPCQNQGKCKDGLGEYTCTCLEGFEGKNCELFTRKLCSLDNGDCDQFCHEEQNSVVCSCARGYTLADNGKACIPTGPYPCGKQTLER
# T1 sequence (P00742 235-488 limits assumed, chain 2 of 2): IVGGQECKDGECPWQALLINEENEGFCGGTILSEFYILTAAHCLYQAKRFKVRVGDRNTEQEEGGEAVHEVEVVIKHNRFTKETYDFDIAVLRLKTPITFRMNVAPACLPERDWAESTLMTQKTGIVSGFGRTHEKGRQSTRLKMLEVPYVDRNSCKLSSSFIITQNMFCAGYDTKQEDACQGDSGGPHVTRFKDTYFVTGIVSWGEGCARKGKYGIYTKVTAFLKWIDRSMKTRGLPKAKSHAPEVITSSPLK
% inhibition at 100 µM [1],% inhibition at 100 µM [2],% inhibition at 100 µM [3],% inhibition at 100 µM [4],% inhibition at 100 µM [5],% inhibition at 100 µM [6],% inhibition at 100 µM [7],Binder
19.6%,0%,11.1%,19%,,,,"XCTASIPPQCY (HELM PEPTIDE1{[Nle].C.T.A.S.I.P.P.Q.C.Y.[dP].F}$PEPTIDE1,PEPTIDE1,2:R3-10:R3|PEPTIDE1,PEPTIDE1,1:R1-13:R2$$$V2.0; SMILES CCCC[C@@H]1NC(=O)[C@H](Cc2ccccc2)NC(=O)[C@H]2CCCN2C(=O)[C@H](Cc2ccc(O)cc2)NC(=O)[C@@H]2CSSC[C@H](NC1=O)C(=O)N[C@@H]([C@@H](C)O)C(=O)N[C@@H](C)C(=O)N[C@@H](CO)C(=O)N[C@@H]([C@@H](C)CC)C(=O)N1CCC[C@H]1C(=O)N1CCC[C@H]1C(=O)N[C@@H](CCC(N)=O)C(=O)N2) [Example 122]"
,11%,0%,,22%,0%,87%,"XCTASIPPQCF (HELM PEPTIDE1{[O=C([C@H](CCc1ccccc1)N[*:1])[*:2]].C.T.A.S.I.P.P.Q.C.F.[dP].P}$PEPTIDE1,PEPTIDE1,2:R3-10:R3|PEPTIDE1,PEPTIDE1,1:R1-13:R2$$$V2.0; SMILES CC[C@H](C)[C@@H]1NC(=O)[C@H](CO)NC(=O)[C@H](C)NC(=O)[C@H]([C@@H](C)O)NC(=O)[C@@H]2CSSC[C@H](NC(=O)[C@H](CCC(N)=O)NC(=O)[C@@H]3CCCN3C(=O)[C@@H]3CCCN3C1=O)C(=O)N[C@@H](Cc1ccccc1)C(=O)N1CCC[C@@H]1C(=O)N1CCC[C@H]1C(=O)N[C@@H](CCc1ccccc1)C(=O)N2) [Example 146]"

# The remaining lines, values behind:
Binder,% inhibition at 100 µM [1],% inhibition at 100 µM [2],% inhibition at 100 µM [3],% inhibition at 100 µM [4],% inhibition at 100 µM [5],% inhibition at 100 µM [6],% inhibition at 100 µM [7]
"XCTASIPPQCX (HELM PEPTIDE1{[Nle].C.T.A.S.I.P.P.Q.C.[Phg].[dP].P}$PEPTIDE1,PEPTIDE1,2:R3-10:R3|PEPTIDE1,PEPTIDE1,1:R1-13:R2$$$V2.0; SMILES CCCC[C@@H]1NC(=O)[C@@H]2CCCN2C(=O)[C@H]2CCCN2C(=O)[C@H](c2ccccc2)NC(=O)[C@@H]2CSSC[C@H](NC1=O)C(=O)N[C@@H]([C@@H](C)O)C(=O)N[C@@H](C)C(=O)N[C@@H](CO)C(=O)N[C@@H]([C@@H](C)CC)C(=O)N1CCC[C@H]1C(=O)N1CCC[C@H]1C(=O)N[C@@H](CCC(N)=O)C(=O)N2, also called Ex. 98) [Example 98]",0%,,0%,0%,0%,0%,
"XCTASIPPQCY (HELM PEPTIDE1{[CCCCCC[C@H](N[*:1])C(=O)[*:2]].C.T.A.S.I.P.P.Q.C.Y.[dP].P}$PEPTIDE1,PEPTIDE1,2:R3-10:R3|PEPTIDE1,PEPTIDE1,1:R1-13:R2$$$V2.0; SMILES CCCCCC[C@@H]1NC(=O)[C@@H]2CCCN2C(=O)[C@H]2CCCN2C(=O)[C@H](Cc2ccc(O)cc2)NC(=O)[C@@H]2CSSC[C@H](NC1=O)C(=O)N[C@@H]([C@@H](C)O)C(=O)N[C@@H](C)C(=O)N[C@@H](CO)C(=O)N[C@@H]([C@@H](C)CC)C(=O)N1CCC[C@H]1C(=O)N1CCC[C@H]1C(=O)N[C@@H](CCC(N)=O)C(=O)N2, also called Ex. 99) [Example 99]",0%,0%,17.4%,30.5%,0%,0%,
